Results taken from patent publication US20140234339A1 (JULIUS MAXIMILIANS UNIVERSIT T W RZBURG, published 2014).

Experiments:
[1] = molecular target: T1, IsaA (immunodominant structure IsaA of Staphylococcus aureus) (Staphylococcus aureus, UniProt P99160 30-233, limits assumed); assay: SPR (BIACORE 2000), UK66-2 captured via anti-Fab antibody, IsaA as analyte, 25 C, 1:1 Langmuir fit
T1 construct: The ELISA text calls it soluble recombinant IsaA; also called IsaA antigen; soluble recombinant IsaA
T1 sequence (looked up): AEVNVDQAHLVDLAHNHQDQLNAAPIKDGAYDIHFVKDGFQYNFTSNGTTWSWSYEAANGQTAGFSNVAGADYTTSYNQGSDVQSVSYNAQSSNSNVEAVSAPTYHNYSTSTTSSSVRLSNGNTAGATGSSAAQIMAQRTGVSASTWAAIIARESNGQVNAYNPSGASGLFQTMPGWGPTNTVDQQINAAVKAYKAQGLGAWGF

[2] = molecular target: T1, IsaA (immunodominant structure IsaA of …); assay: SPR (BIACORE 2000), UK66-2 captured via anti-Fab antibody, IsaA as analyte, 25 C, 1:1 Langmuir fit, two independent measurements

B1: antibody UK66-2 (antibody, V domains shown)
VH: EVQLLESGGGLVQPGGSLRLSCAASGFTFSNYYMSWVRQAPGKGLEWVSDINGNGGSTYYPDTVKGRFTISRDNSKNTLYLQMNSLRAEDTAVYYCVRRGGYYALDYWGQGTTVTVSS
VL: DVVMTQTPLSLSVTPGQPASISCRSSQSLVHINGNTYLHWYLQKPGQSPQLLIYRVSNRFSGVPDRFSGSGSGTDFTLKISRVEAEDVGVYYCSQSTHVPWTFGGGTKLELKR
notes: In the SPR assay it was captured by an anti-Fab antibody; also called anti-IsaA antibody UK66-2
- koff [1]: 0.0018 s⁻¹
- kon [1]: 370000 M⁻¹ s⁻¹
- Kd [2]: 4.8 nM
